Measurements: the supplement of paper PMC10065799, “High-throughput profiling of sequence recognition by tyrosine kinases and SH2 domains using bacterial peptide display” (eLife, 2023)

What follows are sequences tested against Fes (UniProt P07332) (assay: phosphorylation enrichment, bacterial display (enrichment ratio); higher = better substrate or ligand; peptides without Tyr show the background).
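Note: 11-residue human phosphosite peptides and single-mutation variants displayed on the E. coli surface, counted by deep sequencing, each peptide's frequency after selection divided by its frequency in the unselected input library; frequency after pTyr selection over input frequency; kinase dosed for 20-30% of maximal phosphorylation in three min.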

Sequence of Fes (P07332 whole entry, looked up): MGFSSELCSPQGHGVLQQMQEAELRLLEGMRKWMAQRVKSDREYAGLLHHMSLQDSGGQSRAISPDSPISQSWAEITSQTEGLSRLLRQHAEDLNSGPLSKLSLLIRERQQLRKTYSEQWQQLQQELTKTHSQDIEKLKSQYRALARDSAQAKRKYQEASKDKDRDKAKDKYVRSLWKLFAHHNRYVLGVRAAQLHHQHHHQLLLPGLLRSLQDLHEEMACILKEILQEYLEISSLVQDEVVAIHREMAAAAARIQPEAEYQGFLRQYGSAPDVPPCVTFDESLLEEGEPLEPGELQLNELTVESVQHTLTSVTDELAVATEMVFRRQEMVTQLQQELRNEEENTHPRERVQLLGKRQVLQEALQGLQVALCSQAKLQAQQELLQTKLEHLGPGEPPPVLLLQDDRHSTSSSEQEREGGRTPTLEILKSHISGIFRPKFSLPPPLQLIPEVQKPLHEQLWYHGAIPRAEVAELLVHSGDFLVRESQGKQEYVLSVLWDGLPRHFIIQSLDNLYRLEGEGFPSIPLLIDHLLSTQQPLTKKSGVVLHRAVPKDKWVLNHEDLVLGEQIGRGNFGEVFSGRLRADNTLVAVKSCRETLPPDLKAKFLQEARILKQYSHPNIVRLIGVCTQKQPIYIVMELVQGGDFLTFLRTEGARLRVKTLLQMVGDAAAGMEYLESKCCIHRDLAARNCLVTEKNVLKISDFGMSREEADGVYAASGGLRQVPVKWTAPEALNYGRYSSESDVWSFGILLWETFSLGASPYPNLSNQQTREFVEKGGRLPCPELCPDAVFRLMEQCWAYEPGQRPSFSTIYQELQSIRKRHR

Sequence	phosphorylation enrichment
LIYTNYEAGKD [GSTP1_Y112]	1.01
IGEGTYGVVFK [CDK2_Y15_YF]	1.05
IGSQRYKLGVR [RB1_Y446]	0.426
RRIHSYRSHLW [VHL_Y112_G114S]	1.17
EEQKRYYNAMK [SCN5A_Y1494_K1493R]	0.648
HELFVYKCDEN [DOCK3_Y548_YF]	2.21
NTFEKYWLFFQ [GATM_Y103_P105L_YF]	1.44
KTGDYYDLYGG [PTPN11_Y63_N58K]	1.09
IVAREYYSEAD [CAMK2A_Y106]	1.2
FRPPYYHRDCM [HGD_Y334_N337D]	0.867
TETGRYEILTE	0.765
RVEDAYILTCN [CCT6A_Y229]	0.928
DLRTGYSVPYG [TGM1_Y370_Y365D]	0.665
LNPLIYSLRNK [OR5R1_Y290]	2.46
SSNTEYLSASD [INSR_Y999_P997T]	0.746
EYFDGYWEYSV [ITGA2B_Y265_G267E]	1.72
PDSVDYRKKGF [CTSK_Y121_YF]	0.536

Sequence	phosphorylation enrichment
EPAVLYNLKER [MYH7_Y103_D107E]	0.854
LASLIYNFILF [AQP6_Y231_V234I]	3.72
GQSKGYRPKLF [SIPA1L3_Y1376_YF]	0.837
CEHRGFLYLAI [TEK_Y897_Y897F]	1.16
SLTRLCVGENA [NLRP3_Y861_Y861C]	1
QPGTDYKIYRY [FN1_Y1970_L1974R]	0.866
VMSMNYRVGAL [BCHE_Y174_V170M]	0.878
SHMVDYQPYRK [TEX37_Y25]	0.83
AQAERYDDMAA [YWHAG_Y20_E15A]	0.881
SHLEDYPFNAE [AKR1B10_Y310]	1.14
NIKKEYAKMVQ [PMS2_Y181]	0.615
QDLFLYQTHSE [PKHD1_Y255]	1.96
CTIIHYNYMCN [TP53_Y234_T231I]	1
KNILCYIQGGS [HYDIN_Y4610]	1.43
ALVDTYCRHNY [HLA-DRB1_Y107_A103L]	0.709
SPPILYSFYLD [FCRL6_Y239]	1.05

What follows are sequences tested on c-Src in the same assay as above.

Sequence	phosphorylation enrichment
LIYTNYEAGKD [GSTP1_Y112]	7.03
IGEGTYGVVFK [CDK2_Y15_YF]	4.93
IGSQRYKLGVR [RB1_Y446]	0.356
RRIHSYRSHLW [VHL_Y112_G114S]	0.439
EEQKRYYNAMK [SCN5A_Y1494_K1493R]	0.327
HELFVYKCDEN [DOCK3_Y548_YF]	1.18
NTFEKYWLFFQ [GATM_Y103_P105L_YF]	0.538
KTGDYYDLYGG [PTPN11_Y63_N58K]	3.86
IVAREYYSEAD [CAMK2A_Y106]	0.548
FRPPYYHRDCM [HGD_Y334_N337D]	0.455
TETGRYEILTE	0.44
RVEDAYILTCN [CCT6A_Y229]	1
DLRTGYSVPYG [TGM1_Y370_Y365D]	0.384
LNPLIYSLRNK [OR5R1_Y290]	6.55
SSNTEYLSASD [INSR_Y999_P997T]	0.474
EYFDGYWEYSV [ITGA2B_Y265_G267E]	6.02
PDSVDYRKKGF [CTSK_Y121_YF]	0.366

Sequence	phosphorylation enrichment
EPAVLYNLKER [MYH7_Y103_D107E]	0.694
LASLIYNFILF [AQP6_Y231_V234I]	12.7
GQSKGYRPKLF [SIPA1L3_Y1376_YF]	0.412
CEHRGFLYLAI [TEK_Y897_Y897F]	0.564
SLTRLCVGENA [NLRP3_Y861_Y861C]	0.445
QPGTDYKIYRY [FN1_Y1970_L1974R]	0.527
VMSMNYRVGAL [BCHE_Y174_V170M]	0.484
SHMVDYQPYRK [TEX37_Y25]	0.673
AQAERYDDMAA [YWHAG_Y20_E15A]	0.439
SHLEDYPFNAE [AKR1B10_Y310]	0.396
NIKKEYAKMVQ [PMS2_Y181]	0.312
QDLFLYQTHSE [PKHD1_Y255]	0.964
CTIIHYNYMCN [TP53_Y234_T231I]	0.452
KNILCYIQGGS [HYDIN_Y4610]	0.504
ALVDTYCRHNY [HLA-DRB1_Y107_A103L]	0.432
SPPILYSFYLD [FCRL6_Y239]	2.74

Each sequence was assayed on Fer (mouse) in the same assay as above.

Sequence	phosphorylation enrichment
LIYTNYEAGKD [GSTP1_Y112]	5.02
IGEGTYGVVFK [CDK2_Y15_YF]	1.02
IGSQRYKLGVR [RB1_Y446]	0.322
RRIHSYRSHLW [VHL_Y112_G114S]	0.507
EEQKRYYNAMK [SCN5A_Y1494_K1493R]	0.436
HELFVYKCDEN [DOCK3_Y548_YF]	1.15
NTFEKYWLFFQ [GATM_Y103_P105L_YF]	0.478
KTGDYYDLYGG [PTPN11_Y63_N58K]	0.829
IVAREYYSEAD [CAMK2A_Y106]	0.586
FRPPYYHRDCM [HGD_Y334_N337D]	0.499
TETGRYEILTE	0.354
RVEDAYILTCN [CCT6A_Y229]	4.93
DLRTGYSVPYG [TGM1_Y370_Y365D]	0.456
LNPLIYSLRNK [OR5R1_Y290]	1.21
SSNTEYLSASD [INSR_Y999_P997T]	0.48
EYFDGYWEYSV [ITGA2B_Y265_G267E]	1.22
PDSVDYRKKGF [CTSK_Y121_YF]	0.521

Sequence	phosphorylation enrichment
EPAVLYNLKER [MYH7_Y103_D107E]	0.332
LASLIYNFILF [AQP6_Y231_V234I]	19
GQSKGYRPKLF [SIPA1L3_Y1376_YF]	0.342
CEHRGFLYLAI [TEK_Y897_Y897F]	0.545
SLTRLCVGENA [NLRP3_Y861_Y861C]	0.434
QPGTDYKIYRY [FN1_Y1970_L1974R]	0.618
VMSMNYRVGAL [BCHE_Y174_V170M]	0.438
SHMVDYQPYRK [TEX37_Y25]	0.575
AQAERYDDMAA [YWHAG_Y20_E15A]	0.529
SHLEDYPFNAE [AKR1B10_Y310]	0.594
NIKKEYAKMVQ [PMS2_Y181]	0.294
QDLFLYQTHSE [PKHD1_Y255]	0.778
CTIIHYNYMCN [TP53_Y234_T231I]	0.633
KNILCYIQGGS [HYDIN_Y4610]	0.522
ALVDTYCRHNY [HLA-DRB1_Y107_A103L]	0.442
SPPILYSFYLD [FCRL6_Y239]	1.37

The sequences below were run against MERTK (UniProt Q12866) in the same assay as above.
Sequence of MERTK (Q12866 whole entry, looked up): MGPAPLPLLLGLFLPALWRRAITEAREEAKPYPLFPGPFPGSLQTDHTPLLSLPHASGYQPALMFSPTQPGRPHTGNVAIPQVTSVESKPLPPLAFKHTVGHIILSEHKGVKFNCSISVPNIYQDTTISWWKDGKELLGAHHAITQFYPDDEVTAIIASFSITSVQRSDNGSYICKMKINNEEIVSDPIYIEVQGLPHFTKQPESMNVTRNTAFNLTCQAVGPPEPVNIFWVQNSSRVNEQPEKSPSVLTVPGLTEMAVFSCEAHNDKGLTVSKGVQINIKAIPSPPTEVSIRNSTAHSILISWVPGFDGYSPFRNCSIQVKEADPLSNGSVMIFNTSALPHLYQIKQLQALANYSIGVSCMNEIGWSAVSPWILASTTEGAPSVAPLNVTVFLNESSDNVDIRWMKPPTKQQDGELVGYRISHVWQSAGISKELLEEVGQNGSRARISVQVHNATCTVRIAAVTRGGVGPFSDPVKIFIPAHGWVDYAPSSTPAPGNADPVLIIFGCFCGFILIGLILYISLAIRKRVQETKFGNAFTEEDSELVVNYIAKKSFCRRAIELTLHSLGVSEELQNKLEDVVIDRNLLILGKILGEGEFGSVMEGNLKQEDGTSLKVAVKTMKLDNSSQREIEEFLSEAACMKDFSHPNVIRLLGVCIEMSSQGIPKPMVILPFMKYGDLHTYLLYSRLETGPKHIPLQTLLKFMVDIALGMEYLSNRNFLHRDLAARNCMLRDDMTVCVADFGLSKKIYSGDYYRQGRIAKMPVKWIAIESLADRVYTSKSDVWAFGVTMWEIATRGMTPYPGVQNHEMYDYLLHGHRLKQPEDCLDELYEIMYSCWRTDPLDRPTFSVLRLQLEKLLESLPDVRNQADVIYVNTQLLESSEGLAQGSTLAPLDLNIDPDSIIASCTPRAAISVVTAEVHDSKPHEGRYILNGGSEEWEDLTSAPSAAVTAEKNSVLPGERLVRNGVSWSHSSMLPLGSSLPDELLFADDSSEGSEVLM

Sequence	phosphorylation enrichment
LIYTNYEAGKD [GSTP1_Y112]	7.41
IGEGTYGVVFK [CDK2_Y15_YF]	0.905
IGSQRYKLGVR [RB1_Y446]	0.306
RRIHSYRSHLW [VHL_Y112_G114S]	0.718
EEQKRYYNAMK [SCN5A_Y1494_K1493R]	0.351
HELFVYKCDEN [DOCK3_Y548_YF]	0.76
NTFEKYWLFFQ [GATM_Y103_P105L_YF]	0.544
KTGDYYDLYGG [PTPN11_Y63_N58K]	3.04
IVAREYYSEAD [CAMK2A_Y106]	0.455
FRPPYYHRDCM [HGD_Y334_N337D]	0.444
TETGRYEILTE	0.421
RVEDAYILTCN [CCT6A_Y229]	0.498
DLRTGYSVPYG [TGM1_Y370_Y365D]	0.399
LNPLIYSLRNK [OR5R1_Y290]	1.5
SSNTEYLSASD [INSR_Y999_P997T]	0.435
EYFDGYWEYSV [ITGA2B_Y265_G267E]	2
PDSVDYRKKGF [CTSK_Y121_YF]	0.368

Sequence	phosphorylation enrichment
EPAVLYNLKER [MYH7_Y103_D107E]	0.388
LASLIYNFILF [AQP6_Y231_V234I]	14.7
GQSKGYRPKLF [SIPA1L3_Y1376_YF]	0.389
CEHRGFLYLAI [TEK_Y897_Y897F]	0.442
SLTRLCVGENA [NLRP3_Y861_Y861C]	0.466
QPGTDYKIYRY [FN1_Y1970_L1974R]	0.499
VMSMNYRVGAL [BCHE_Y174_V170M]	0.416
SHMVDYQPYRK [TEX37_Y25]	0.575
AQAERYDDMAA [YWHAG_Y20_E15A]	0.389
SHLEDYPFNAE [AKR1B10_Y310]	0.413
NIKKEYAKMVQ [PMS2_Y181]	0.392
QDLFLYQTHSE [PKHD1_Y255]	0.543
CTIIHYNYMCN [TP53_Y234_T231I]	0.419
KNILCYIQGGS [HYDIN_Y4610]	0.458
ALVDTYCRHNY [HLA-DRB1_Y107_A103L]	0.618
SPPILYSFYLD [FCRL6_Y239]	8.22
